We go through three molecules from article PMC9542197 (Chembiochem, 2022).

For data set [1], the target named is T1, TmMtaD (SAH deaminase from Thermotoga maritima) (Thermotoga maritima, UniProt Q9X034).
T1 sequence (Q9X034 1-406): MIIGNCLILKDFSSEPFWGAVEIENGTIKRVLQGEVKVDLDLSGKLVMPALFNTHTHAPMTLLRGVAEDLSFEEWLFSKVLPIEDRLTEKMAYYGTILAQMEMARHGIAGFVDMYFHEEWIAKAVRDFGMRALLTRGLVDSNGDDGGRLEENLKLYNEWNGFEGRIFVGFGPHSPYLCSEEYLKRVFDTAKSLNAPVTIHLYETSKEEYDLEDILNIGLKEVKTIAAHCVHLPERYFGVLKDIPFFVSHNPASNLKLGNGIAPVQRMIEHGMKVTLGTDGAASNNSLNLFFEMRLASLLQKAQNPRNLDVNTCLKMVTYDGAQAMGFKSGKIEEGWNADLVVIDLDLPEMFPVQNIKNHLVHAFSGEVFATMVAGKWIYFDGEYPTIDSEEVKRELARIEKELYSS
As to the kind of experiment: GDH-coupled NADH oxidation at […] nm. The data set is classed as biochemical. The note with it: 50 mM potassium phosphate pH 7.5, 50 mM KCl, 20 mM MgCl2.

In the next data set the test system is NCCc1ccc(O)c(O)c1. Briefly: purified protein. The following applies: 200 μM SAM, 50 mM HEPES pH 7.5, 100 mM KCl, 20 mM MgCl2, 25 °C.
Substrate in the data set “purified protein”: NCCc1ccc(O)c(O)c1
As to the kind of experiment: purified protein. It is filed as biochemical, Rattus norvegicus. The note with it: 200 μM SAM, 50 mM HEPES pH 7.5, 100 mM KCl, 20 mM MgCl2, 25 °C.

One may read the Km as the substrate concentration at which the rate is half of its maximum. On to `Nc1ncnc2c1ncn2[C@@H]1O[C@H](CSCC[C@H](N)C(=O)O)[C@@H](O)[C@H]1O` [SAH], for which the Km in data set [1] was 180 ± 60 µM.

One may read the kcat as the maximal rate divided by the concentration of active sites. Regarding “MxSafC (SafC O-MT from Myxococcus xanthus) (Myxococcus xanthus)”, in the data set with NCCc1ccc(O)c(O)c1, the Km turned out to be 270 ± 14 µM and the kcat was found to be 0.039 ± 0.001 s⁻¹.

B1: RnCOMT (catechol-O-MT from Rattus norvegicus) (Rattus norvegicus) (protein)
chain: MGDTKEQRILRYVQQNAKPGDPQSVLEAIDTYCTQKEWAMNVGDAKGQIMDAVIREYSPSLVLELGAYCGYSAVRMARLLQPGARLLTMEMNPDYAAITQQMLNFAGLQDKVTILNGASQDLIPQLKKKYDVDTLDMVFLDHWKDRYLPDTLLLEKCGLLRKGTVLLADNVIVPGTPDFLAYVRGSSSFECTHYSSYLEYMKVVDGLEKAIYQGPSSPDKS
Turning to B1, in “purified protein”, the Km worked out at 144 ± 15 µM and the kcat turned out to be 0.072 ± 0.002 s⁻¹.
